# From publication PMC9101815, “Extracellular Matrix Biomimetic Hydrogels, Encapsulated with Stromal Cell-Derived Factor 1, Improve the Composition of Foetal Tissue Grafts in a Rodent Model of Parkinson’s Disease” (International Journal of Molecular Sciences, 2022)
# Ends that are not written are not given here. * marks the point of attachment. Fmoc = O=C(OCC1c2ccccc2-c2ccccc21)*
# B1: Fmoc-DDIKVAV self-assembling peptide (peptide)
# peptide: Fmoc-DDIKVAV
# notes: Whole peptide as printed: DDIKVAV with N-terminal Fmoc; Assembles into nanofibres and a hydrogel; also called SAP; IKVAV SAP; source: solid phase peptide synthesis
# Target: the molecule itself
# Test: FTIR + circular dichroism + transmission electron microscopy; peptide alone; gelation by pH switch, 20 mg/mL stock; self-assembly under physiological conditions (pH 7.4) into nanofibrils and a hydrogel
protein,measurement,value
B1,binding result,binds
